These results are taken from patent publication US20200262867A1 (WNTRX PHARMACEUTICALS, published 2020).

One may read the IC50 as the concentration at which inhibition is half-maximal. High values mean weaker potency, low ones greater potency.

Sequences and labels used below:
T1: β-catenin (UniProt P35222 1-781, limits assumed)
T1 construct: also called beta-catenin
T1 sequence (looked up): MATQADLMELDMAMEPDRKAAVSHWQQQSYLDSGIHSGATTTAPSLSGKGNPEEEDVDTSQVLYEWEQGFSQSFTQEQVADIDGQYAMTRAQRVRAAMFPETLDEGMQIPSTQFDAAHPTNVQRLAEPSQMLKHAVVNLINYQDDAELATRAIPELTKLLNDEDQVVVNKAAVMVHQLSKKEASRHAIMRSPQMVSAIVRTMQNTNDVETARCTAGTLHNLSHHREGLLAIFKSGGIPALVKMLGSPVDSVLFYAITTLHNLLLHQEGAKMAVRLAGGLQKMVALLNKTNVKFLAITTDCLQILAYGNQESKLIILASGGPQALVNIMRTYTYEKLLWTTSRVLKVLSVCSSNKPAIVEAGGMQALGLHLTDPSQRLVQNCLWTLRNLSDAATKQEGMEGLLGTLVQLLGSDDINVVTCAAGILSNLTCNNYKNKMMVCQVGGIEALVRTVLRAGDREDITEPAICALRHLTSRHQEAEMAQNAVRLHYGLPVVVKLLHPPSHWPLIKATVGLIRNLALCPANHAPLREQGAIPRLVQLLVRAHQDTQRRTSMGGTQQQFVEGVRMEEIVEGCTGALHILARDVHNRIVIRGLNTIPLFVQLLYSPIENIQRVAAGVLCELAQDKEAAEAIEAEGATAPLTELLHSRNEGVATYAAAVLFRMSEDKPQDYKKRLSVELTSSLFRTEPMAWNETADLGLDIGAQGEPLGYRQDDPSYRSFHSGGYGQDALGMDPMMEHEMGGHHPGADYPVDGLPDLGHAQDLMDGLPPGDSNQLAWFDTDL

B1: SEQ ID NO: 127 (peptide)
peptide: Ac-LQTLR[S5]IQR[S5][Cha][2Nal]-NH2
modifications: staple 6-10
SMILES: CC[C@H](C)[C@@H]1NC(=O)[C@@](C)(NC(=O)[C@H](CCCNC(=N)N)NC(=O)[C@H](CC(C)C)NC(=O)[C@@H](NC(=O)[C@H](CCC(N)=O)NC(=O)[C@H](CC(C)C)NC(C)=O)[C@@H](C)O)CCCC=CCCC[C@@](C)(C(=O)N[C@@H](CC2CCCCC2)C(=O)N[C@@H](Cc2ccc3ccccc3c2)C(N)=O)NC(=O)[C@H](CCCNC(=N)N)NC(=O)[C@H](CCC(N)=O)NC1=O
B2: SEQ ID NO: 120 (peptide)
peptide: HOCH2CH2CO-LQTLR[S5]IQR[S5][Cba][2Nal]-NH2
modifications: staple 6-10; not fully specified (residue 2); printed as L(N-methylQ)TLRXIQRX(CBA)(2-Nal)
B3: SEQ ID NO: 132 (peptide)
peptide: Ac-L[NMeQ]TL[hArg][S5]IQR[S5][Cba][2Nal]-NH2
modifications: staple 6-10; not fully specified; printed as L(N-methylQ)TL(homoR)XIQRX(CBA)(2-Nal)
B4: SEQ ID NO: 125 (peptide)
peptide: Ac-L[NMeQ]TLR[S5]IQ[NMeR′][S5][Cba][2Nal]-NH2
modifications: staple 6-10; not fully specified; printed as L(N-methylQ)TLRXIQ(N-methylR)X(CBA)(2-Nal)
B5: SEQ ID NO: 118 (peptide)
peptide: Ac-[NMeL]QTLR[S5]IQR[S5][Cba][2Nal]-NH2
modifications: staple 6-10; not fully specified (residue 2); printed as (Me-L)(N-MeQ)TLRXIQRX(CBA)(2-Nal)
B6: SEQ ID NO: 124 (peptide)
peptide: Ac-L[NMeQ]TL[NMeR′][S5]IQR[S5][Cba][2Nal]-NH2
modifications: staple 6-10; not fully specified; printed as L(N-methylQ)TL(N-methylR)XIQRX(CBA)(2-Nal)
B7: SEQ ID NO: 128 (peptide)
peptide: Ac-LQTL[NMeR′][S5]IQ[NMeR′][S5][Cba][2Nal]-NH2
modifications: staple 6-10; not fully specified (residue 2); printed as L(N-methylQ)TL(N-methylR)XIQ(N-methylR)X(CBA)(2-Nal)
B8: SEQ ID NO: 40 (peptide)
peptide: Ac-RE[S5]SLQ[S5]LR[S5]IQR[S5]L[2Nal][βAla][βAla]-NH2
modifications: staple 10-14, 3-7; not fully specified; printed as REXaa1SLQXaa2LRXaa3IQRXaa4L(2-Nal)(β-Ala)(β-Ala)
B9: SEQ ID NO: 122 (peptide)
peptide: Ac-LQTLR[S5]IQR[S5][Cha][2Nal]-NH2
modifications: staple 6-10; not fully specified (residue 2); printed as L(N-methylQ)TLRXIQRX(Cha)(2-Nal)
B10: SEQ ID NO: 119 (peptide)
peptide: Ac-LQTLR[S5]IQR[S5][Ala(cPr)][2Nal]-NH2
modifications: staple 6-10; not fully specified (residue 2); printed as LN(Me-Gln)TLRXIQRX(Cpa)(2-Nal)
B11: SEQ ID NO: 121 (peptide)
peptide: Ac-LQ[NMeT]LR[S5]IQR[S5][Cba][2Nal]-NH2
modifications: staple 6-10; not fully specified (residue 2); printed as L(N-methylQ)(N-methylT)LRXIQRX(CBA)(2-Nal)
B12: SEQ ID NO: 126 (peptide)
peptide: Ac-L[NMeQ]T[αMeL]R[S5]IQR[S5][Cba][2Nal]-NH2
modifications: staple 6-10; not fully specified; printed as L(N-methylQ)T(α-methylL)RXIQRX(CBA)(2-Nal)

Bridges are numbered along the chain shown (N, C = ends). Primed or numbered codes have the meaning given here. Where no end group is shown, it is not given here. [ ]: non-standard residue; d: D form. S5′ = (S)-2-(4'-pentenyl)alanine, olefinic stapling residue closed by ring-closing metathesis; NMeR′ = N-methylarginine (methylation site not shown in the text); 2Nal = N[C@@H](Cc1ccc2ccccc2c1)C(=O)O; pentenylAla = 2-(4'-pentenyl)alanine; NMeR = CN[C@@H](CCCNC(=N)N)C(=O)O; Ala(cPr) = N[C@@H](CC1CC1)C(=O)O; NMeT = CN[C@H](C(=O)O)[C@@H](C)O; hArg = N=C(N)NCCCC[C@H](N)C(=O)O; NMeQ = CN[C@@H](CCC(N)=O)C(=O)O; dNMeQ = CN[C@H](CCC(N)=O)C(=O)O; Cha = N[C@@H](CC1CCCCC1)C(=O)O; NMeL = CN[C@@H](CC(C)C)C(=O)O; αMeL = CC(C)C[C@](C)(N)C(=O)O; Cba = N[C@@H](CC1CCC1)C(=O)O; S5 = C=CCCC[C@](C)(N)C(=O)O; Nle = CCCC[C@H](N)C(=O)O; Abu = CC[C@H](N)C(=O)O; βAla = NCCC(=O)O

The target in the test is T1, β-catenin. The test can be described thus: ALPHA Screen (BCL9/β-catenin).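 Also: bead proximity readout with the polypeptide linked to donor beads and β-catenin fixed on acceptor beads, their binding bringing the beads close enough to emit signal.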
From the text: In this assay, a polypeptide is conjugated to a donor bead and its target protein (i.e., β-catenin) is attached to an acceptor bead. When the two beads are in proximity due to the binding of the polypeptide to the target protein, a signal is generated and the binding affinity of the polypeptide can be quantitatively calculated. The assay may be conducted in the presence or absence of an unconjugated control polypeptide.
Molecule B1 showed a half-inhibitory concentration (IC50) of 10.1 µM. This counts as double-digit micromolar.

On to Ac-LQTLR[S5]IQR[S5]L[2Nal]PD-NH2 (staple 6-10; not fully specified; printed as LQTLRXIQRXL(2-Nal)PD) [SEQ ID NO: 32], for which the half-inhibitory concentration (IC50) came to 12.2 µM.

Consider R[pentenylAla][Ala(cPr)][dNMeQ][pentenylAla][Ala(cPr)]R[pentenylAla]IQR[pentenylAla][Ala(cPr)][2Nal][βAla][βAla] (staple 8-12, 2-5) [SEQ ID NO: 89], for which the IC50 was found to be 2.46 µM. This IC50 is about 5-fold lower than that of the molecule before.

The molecule Ac-L[NMeQ]TLR[S5]IQ[hArg][S5][Cba][2Nal]-NH2 (staple 6-10; also: N-methyl-Gln at 2: filing says both D and L) [SEQ ID NO: 133] had an IC50 of 9.2 µM.

Turning to Ac-LQTLR[S5]IQR[S5]L[2Nal]P-NH2 (staple 6-10; not fully specified; printed as LQTLRXIQRXL(2-Nal)P) [SEQ ID NO: 33], half-maximal inhibition (IC50) was put at 11.8 µM.

On to LQTLR[Nle]IQR[Nle]L[2Nal] [SEQ ID NO: 52], for which the IC50 is 4.7 µM.

Take Ac-HR[S5′]RSL[S5′]TLR[S5′]IQR[S5′][Cba][2Nal]-NH2 (staple 11-15, 3-7) [SEQ ID NO: 94]: the IC50 was determined as 0.175 µM.

The molecule Ac-HRE[S5′]SLQ[S5′]LR[Nle]IQR[Nle]L[2Nal]-OH (staple 4-8) [SEQ ID NO: 80] displayed an IC50 of 5.33 µM.

Ac-HRE[S5′]SLQ[S5′]LR[Nle]IQR[Nle][Cba][2Nal]-OH (staple 4-8) [SEQ ID NO: 81] came in with an IC50 of 45.5 µM.

For H-HRE[S5′]SLQ[S5′]LR[S5′]IQR[S5′][Cba][2Nal]-OH (staple 11-15, 4-8) [SEQ ID NO: 82], the IC50 worked out at 1.01 µM.

The molecule Ac-HRQ[S5′]SLQ[S5′]LR[S5′]IQR[S5′][Cba][2Nal]-NH2 (staple 11-15, 4-8) [SEQ ID NO: 87] registered an IC50 of 2.66 µM.

Regarding Ac-HRE[S5′]SLQ[S5′]LR[S5′]IQQ[S5′][Cba][2Nal]-OH (staple 11-15, 4-8) [SEQ ID NO: 83], the IC50 turned out to be 50 µM.

B2: it took 5.44 µM to reach half-maximal inhibition (IC50).

With B3, the IC50 turned out to be 11.2 µM. This IC50 lies about 2.1-fold higher than the previous one.

In turn, EHRERSLQTLRDIQRML[2Nal] [SEQ ID NO: 63] gave a concentration for half-maximal inhibition (IC50) of 2.5 µM.

In turn, B4 came in with an IC50 of 10.6 µM.

Ac-LQTLR[S5]IQR[S5][Cba][2Nal]-NH2 (staple 6-10) [SEQ ID NO: 107] displayed an IC50 of 0.316 µM.

Consider B5, for which the IC50 was 6.33 µM.

For Ac-QLEHRERSL[S5]TLR[S5]IQR[Abu]L[2Nal][βAla][βAla]-NH2 (staple 10-14) [SEQ ID NO: 78], half-maximal inhibition (IC50) was put at 0.09 µM.

EHRERSLQTLR[Nle]IQR[Nle]L[2Nal] [SEQ ID NO: 64] had an IC50 of 1.73 µM.

Molecule QLEHRERSLQTLRDIQRML[2Nal] [SEQ ID NO: 65] gave an IC50 of 1.64 µM.

Molecule QLEHRERSL[Nle]TLR[Nle]IQRML[2Nal] [SEQ ID NO: 67] displayed a half-maximal inhibitory concentration (IC50) of 1.08 µM.

In the case of QLEHRERSLQTLR[Nle]IQR[Nle]L[2Nal] [SEQ ID NO: 66], the 50% inhibitory concentration (IC50) amounted to 0.73 µM. This IC50 and that of the molecule before are within 1.5-fold of each other.

As for B6, 2.74 µM corresponded to half-maximal inhibition (IC50).

B7 gave an IC50 of 29.5 µM.

For B8, half-maximal inhibition (IC50) was put at 2.39 µM. Against the preceding molecule, the IC50 is about 12-fold lower.

As for Ac-LQTL[NMeR][S5]IQR[S5][Cba][2Nal]-NH2 (staple 6-10; not fully specified (residue 2)) [SEQ ID NO: 117], it took 4.23 µM to reach half-maximal inhibition (IC50).

For B9, the midpoint of inhibition, the IC50, lay at 7.17 µM.

Regarding LR[Nle]IQR[Nle]L[2Nal] [SEQ ID NO: 50], the IC50 turned out to be 2.54 µM.

On to HRERSLQTLR[Nle]IQR[Nle]L[2Nal] [SEQ ID NO: 62], for which half-maximal inhibition (IC50) was put at 0.84 µM.

The molecule B10 came in with an IC50 of 15.8 µM.

In turn, B11 yielded an IC50 of 5.01 µM.

For B12, inhibition was half-maximal at 7.43 µM (IC50).

With LQTLRDIQRML[2Nal] [SEQ ID NO: 51], half-maximal inhibition (IC50) was put at 5.78 µM.
